These results are taken from patent US20250376505A1.

B1: B8P7 (antibody, V domains shown)
VH: QVQLQESGPGLVRPSETLSLTCTVSGGSISPYYWNWIRQPPGKGLEWIGYIYYSGNTKYNPSLKSRVTISVDTSKNQFSLKLSSVSAADTAVYYCARDSCSGTCYLGDNWFDPWGQGTLVTVSS
VL: QSVLTQPPSVSGAPGQRVTISCTGSSSNIGANNDVHWYQHLPGTAPKLLIYGNNHRPSGVPDRFSGSKSGTSASLAITGLQAEDEADYYCQSYDSSLSTSKVFGGGTKLTVL
B2: C4P6 (antibody, V domains shown)
VH: B1 VH with D108G
VL: B1 VL
B3: C11P7 (antibody, V domains shown)
VH: EVQLVESGGGLVQPGGSLKLSCAASGFSLSNSEVHWVRQASGKGLEWIGRVRSRANRHATGYTESVNGRFTVSRDDSKNTASLQLESLKIEDTAVYYCTGVRGVISRYFAMDVWGQGTTVTVSS
VL: QSALTQPASVSGSPGQSITISCTGTSSDVGAYNYVSWYRLRPGKDPHLIIYDVSHRPAGVSNRFSGSKSGNTASLTISGLQAEDEDEYYCCSYAHRGTPLFGGGTKLTVL
B4: D7P6 (antibody, V domains shown)
VH: EVQLLESGGGLVQPGGSLRLSCAASGFPFSSYAMSWVRQAPGKGLEWVSGITGSASGTYYADSVKGRFTISRDNSKNTLYLRMNSLRAEDTAVYYCAKEGAYSYDYWYFDLWGRGTLVTVSS
VL: EIVLTQSPGTLSLSPGERATLSCRASQSVSGSYLAWYQQKPGQTPRLLIYGASSRATGIPDRFSGSGSGTDFTLTINRLDPEDFGVYYCQQYGSLVTFGGGSKVEIK
B5: G5P1 (antibody, V domains shown)
VH: QVQLQESGPGLVKPSGTLSLTCTVSGGSIRNSYWSWIRQPPGKGLEWIGYIYYTGTTNSNPSLKSRVTISVHMSRNQISLKLNSVTPADTAVYYCAQGGGSGDLHYWGQGTLVTVSS
VL: NFMLTQPASVSGSPGQSITISCTGTRSDVGGYNYVSWYQQHPGKAPKLMIYDISSRPSGVSNRFSASKSGNTASLTISGLQAEDEADYYCISFATGYTWVFGGGTRLTVL
B6: E7P5 (antibody, V domains shown)
VH: B5 VH with G16E, P40S, T56S, V67L, I69V, R75Q
VL: B5 VL with N1Q, F2S, M3A, M49I, R106S
B7: B9P6 (antibody, V domains shown)
VH: EVQLVESGGGLVQPGGSLRLSCAASGFTFRSYTMDWVRQAPGKGLEWVSCISGSSNHKYYADSVRGRFTISRDNAKNSLFLQMNSLRAEDSAVYYCAREDDILTPLYGMDVWGPGTTVTVSS
VL: EIVLTQSPDTLSLSPGARATLSCRASQSVRSNYLAWYQQKPGQAPRLLIYGASSRATAIPDRFSGSGSGTDFTLTITRLEPEDFAVYYCHQYGSSPRTFGQGTKVEIK
B8: E11P6 (antibody, V domains shown)
VH: B7 VH with T33S, C50Y, H57Q, A61T
VL: B7 VL with F72L, G93A
B9: G11P1 (antibody, V domains shown)
VH: B7 VH with T33S, C50Y, H57Q, A61T
VL: B7 VL with G93A
B10: B2P8 (antibody, V domains shown)
VH: B5 VH with G16E, R75Q
VL: B7 VL with G93A
B11: B10P1 (antibody, V domains shown)
VH: EVQLSESGGGLVQPGGSLRLSCAASGFTFSSYAMSWVRQAPGKGLEWVSSLTGSGGSTYYRDSVKGRFTIFRDNSKKTLYMQMNSLRAEDTAVYYCAKEGAYSYDFWYFDLWGRGTLVTVSS
VL: EIVLTQSPGTLSLSPGERATLSCRASQTVSGNYLAWYQQKPGQSPSLLIYGASSRATGIPDRFTGSGSGTDFTLTISRLEPADFAVYYCQQYGRPLTFGGGTKVDIK
B12: C4P7 (antibody, V domains shown)
VH: B11 VH with S5L
VL: B11 VL with D105E

The term EC50 denotes the concentration that produces a half-maximal response. Low values mean a more potent agent, high ones a less potent agent.

Where a chain is given by its changes, count along the chain named.

The target in the assay is VP1 pentamer of BKV genotype I (truncated VP1, residues 31 to 301, Dunlop sequence with Cys 104 replaced by Ser) (BK virus genotype I (Dunlop)) (UniProt P03088). The assay is described as follows: ELISA, coated VP1 pentamer. In general terms: In an ELISA, binding on a coated surface is turned into a signal by an enzyme label.
VP1 pentamer of BKV genotype I (truncated VP1, residues 31 to 301, Dunlop sequence with Cys 104 replaced by Ser) (BK virus genotype I (Dunlop)), sequence (P03088 31-301): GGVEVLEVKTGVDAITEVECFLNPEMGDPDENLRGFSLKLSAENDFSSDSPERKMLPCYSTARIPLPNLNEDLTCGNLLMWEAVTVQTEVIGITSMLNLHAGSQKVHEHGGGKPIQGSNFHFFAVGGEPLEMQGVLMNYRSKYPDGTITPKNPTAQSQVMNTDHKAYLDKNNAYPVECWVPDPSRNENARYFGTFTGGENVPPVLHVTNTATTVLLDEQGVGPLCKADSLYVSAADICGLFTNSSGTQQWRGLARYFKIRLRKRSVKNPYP
The molecule B1 registered an EC50 of 0.05 µg/mL.

As for B2, the 50% effective concentration (EC50) came to 1.5 µg/mL.

In the case of B3, the 50% effective concentration (EC50) worked out at 6 µg/mL. B4 returned an EC50 of 6 µg/mL. As to B5, the EC50 was 7 µg/mL. The value for B6 was 0.15 µg/mL. Molecule B7 had an EC50 of 0.12 µg/mL.

In turn, B8 registered an EC50 of 0.6 µg/mL. With B9, the EC50 stood at 0.7 µg/mL. On to B10, for which the concentration giving a half-maximal response (EC50) is 10 µg/mL. In the case of B11, the EC50 was determined as 7 µg/mL. With B12, the EC50 worked out at 5 µg/mL.
